From patent US20160264650A1 (Regeneron, published 2016)

Columns and labels:
CBD-toxin A-Fc [1] = biological target: T1, CBD-toxin A-Fc (Clostridium difficile, UniProt P16154 1848-2710); test: SPR Biacore, mAb capture and CBD-Fc capture formats
T1 construct: also called CBD-A; C-term Toxin A

[2] = biological target: T2, Clostridium difficile toxin B, soluble full-length (TechLab) (Clostridium difficile, UniProt P18177 2-2366); test: cell-based or functional assay
[3] = biological target: T2, Clostridium difficile toxin B, soluble …; test: SPR Biacore T200, 37C, mAb capture
CBD-toxin A-Fc [4] = biological target: T1, CBD-toxin A-Fc; test: SPR Biacore, mAb captured, 100 nM CBD-A-Fc flowed
CBD-toxin B-Fc [5] = biological target: T3, CBD-toxin B-Fc (Clostridium difficile, UniProt P18177 1851-2366); test: SPR Biacore, CBD-B-Fc captured, 500 nM mAb flowed
T3 construct: also called CBD-B; C-term Toxin B

CBD-toxin A-Fc [6] = biological target: T1, CBD-toxin A-Fc; test: SPR Biacore, CBD-A-Fc captured, 500 nM mAb flowed
[7] = biological target: T4, C-term receptor Binding Domain (CBD) of toxin B (Clostridium difficile, UniProt P18177 1851-2366); test: SEC (Superose 6) of CBD and mAb mixture
T4 construct: also called CBD-B

CBD-toxin B-Fc [8] = biological target: T3, CBD-toxin B-Fc; test: SPR Biacore, mAb capture and CBD-Fc capture formats

Row | Binder | binding result (CBD-toxin A-Fc [1]) | IC50, Vero cell viability (neutralization), Trial 1, 0.1 pM Toxin B [2] | IC50, Vero cell viability (neutralization), Trial 2, 0.1 pM Toxin B [2] | IC50, Vero cell viability (neutralization), Trial 3, 0.03 pM Toxin B [2] | Kd [3] | T½ [3] | koff [3] | kon [3] | binding (RU) (CBD-toxin A-Fc [4]) | binding (RU) (CBD-toxin B-Fc [5]) | binding (RU) (CBD-toxin A-Fc [6]) | binding result [7] | binding result (CBD-toxin B-Fc [8])
1 | H1H3339P (antibody, V domains shown) VH: EVQLVESGGGLVQPGGSLRLSCAVSGFTFSIYAMSWVRQAPGKGLEWVSAISGSGDKTYYADSVKGRFTISRDNSKNTLYLQMNSLRAEDTAVFYCARGWELLNYWGQGTLVTVSS VL: DIQMTQSPSSLSASVGDRVTITCRASLDISNFLAWFQQKPGTAPKSLIYSASSLRTGVPSKFSGSGSGTDFTLTISSLQPEDFATYYCQQYSSYPPTFGPGTKVDIKR | no binding | 480 pM | 270 pM | 90 pM | 1.95 nM | 22 min | 0.000537 s⁻¹ | 276000 M⁻¹ s⁻¹ | 19 RU | -2 RU | 2 RU | no binding (tested: CBD at ~500 nM, CBD:Mab 1:5 and 1:20) | 
2 | H1H3343P (antibody, V domains shown) VH: EVQLVESGGGLVQPGGSLRLSCVASGFNFRIYAMSWVRQAPGKGPEWVSGISGSGDNTYYAASVKGRFTVSRDNSKNTLYLQMTSLRAEDTAVFYCARGWELLNYWGQGTLVTVSS VL: DIQMTQSPSSLSASVGDRVTITCRASLDIGNFLAWFQQKPGTAPKSLIYSASSLQTGVPSKFSGSGSGTDFTLTISSLQPEDFATYYCQQYNSYPPTFGPGTKVDIKR | no binding | 280 pM | 200 pM | 50 pM | 1.58 nM | 26 min | 0.000448 s⁻¹ | 284000 M⁻¹ s⁻¹ | 11 RU | -4 RU | 3 RU | no binding (tested: CBD at ~500 nM, CBD:Mab 1:5 and 1:20) | 
3 | H1H3347P (antibody, V domains shown) VH: EVQLVESGGGLVQPGGSLRLSCVASGFTFTSYAMSWVRQAPGRGLQWVSAIGGSGDSIYYADSVKGRFTISRDNSKNTLYLQMDSLRAEDTAVYYCARGWELLNYWGQGTLVTVSS VL: DIQMTQSPSSLSASVGDRVTITCRASQDIGNFLAWFQQKPGKAPKSLIYAASSLKSGVPSKISGSGSGTDFTLTINSLQPEDFATYYCQQYNIYPPTFGPGTKVDIKR |  | 130 pM | 90 pM | 25 pM | 2.4 nM | 14 min | 0.000813 s⁻¹ | 339000 M⁻¹ s⁻¹ | 42 RU |  | -13 RU | no binding (tested: CBD at ~500 nM, CBD:Mab 1:5 and 1:20) | no binding
4 | H1H3344P (antibody, V domains shown) VH: EVQLVESGGGLVQPGGSLRLSCAASGFTFKIYAMSWVRQGPGKGLEWVSAISGNGDKTYYTDSVQGRFTISRDNSKNTLFLQMNSLRAEDTAIYYCARGWELLNYWGQGTLVTVSS VL: DIQMTQSPSSLSASIGDRVTITCRASQDISNSLAWFQQKPGKAPKSLIYAASSLQSGVPSRFSGSGSGTDFTLTISSLQPEDFATYYCQQYIPFPPTFGPGTKVDIKR | no binding | 580 pM | 400 pM | 40 pM | 4.24 nM | 13 min | 0.000865 s⁻¹ | 204000 M⁻¹ s⁻¹ | 5 RU | -2 RU | 5 RU | no binding (tested: CBD at ~500 nM, CBD:Mab 1:5 and 1:20) | 
5 | H1H3337P (antibody, V domains shown) VH: EVQLVESGGGLVQPGGSLRLSCAASGFTFSIYAMSWVRQAPGKGLEWVSGISGSGGRTYYADSVKGRFTISRDNSKNTLYLQMNSLRVEDTAVYYCARGWELLNFWGQGTLVTVSS VL: DIQMTQSPSSLSASVGDRVTITCRASQGISNNLAWFQQKPGKAPKSLIYAASSLKSGVPSKFSGSGSGTDFTLTINSLQPEDFATYYCHQYNSYPPTFGPGTKVDIKR |  | 1730 pM | 980 pM | 320 pM | 3.93 nM | 12 min | 0.000945 s⁻¹ | 241000 M⁻¹ s⁻¹ | -17 RU |  | 8 RU | no binding (tested: CBD at ~500 nM, CBD:Mab 1:5 and 1:20) | 
